Source: PMC6527180, “A chloride ring is an ancient evolutionary innovation mediating the assembly of the collagen IV scaffold of basement membranes” (The Journal of Biological Chemistry, 2019)
Values belong to the binder of their own block, whether it stands above or below them.

B2: bovine α2 NC1 monomer (collagen IV α2-chain NC1 domain from bovine lens basement membrane) (domain or fragment)
chain: ISIGYLLVKHSQTDQEPMCPVGMNKLWSGYSLLYFEGQEKAHNQDLGLAGSCLARFSTMPFLYCNPGDVCYYASRNDKSYWLSTTAPLPMMPVAEEDIRPYISRCSVCEAPAVAIAVHSQDVSIPHCPAGWRSLWIGYSFLMHTAAGDEGGGQSLVSPGSCLEDFRATPFIECNGARGTCHYYANKYSFWLTTIPEQSFQGTPSADTLKAGLIRTHISRCQVCMKNL
notes: collagen IV α2-chain NC1 domain, bovine, monomer from tissue-extracted NC1 hexamer; Used as a mixture with the α1 NC1 monomer; also called tissue-derived α2 NC1 monomer; NC1 monomers; source: purified from bovine lens basement membrane
B4: human collagen IV α1-chain NC1 domain, third domain of the single-chain trimer (residues 1446–1669) (domain or fragment, UniProt P02462 1446-1669, looked up)
chain: FLVTRHSQTIDDPQCPSGTKILYHGYSLLYVQGNERAHGQDLGTAGSCLRKFSTMPFLFCNINNVCNFASRNDYSYWLSTPEPMPMSMAPITGENIRPFISRCAVCEAPAMVMAVHSQTIQIPPCPSGWSSLWIGYSFVMHTSAGAEGSGQALASPGSCLEEFRSAPFIECHGRGTCNYYANAYSFWLATIERSEMFKKPTPSTLKAGELRTHVSRCQVCMRRT
notes: collagen IV α1-chain NC1 domain, human, residues 1446–1669 (including final C-terminal residues); Not a free protein: joined by an APG linker to m5 on the single chain m1; also called α1 NC1 domain

Legend:
[1] = target: the molecule itself; assay: SEC; in vitro hexamer assembly: 1 mg/ml in 25 mM Tris acetate pH 7.5, induced with 150 mM NaCl, 24 h at 37 °C unless varied (NaCl, protein, temperature, time); hexamer peak quantified by SEC; second-order fit T+T→H
[2] = target: the molecule itself; assay: crystal structure; X-ray, 1.9 Å, space group P4_(1)2_(1)2; protein 11 mg/ml in 5 mM Tris-HCl pH 7.5, 150 mM NaCl; hexamer by crystallographic 2-fold
[3] = target: T1, bovine α1 NC1 monomer (collagen IV α1-chain NC1 domain from bovine lens basement membrane) (bovine, UniProt Q7SIB2 1441-1669); assay: co-IP; bovine α1 and α2 NC1 monomers incubated with sc121 NC1-trimer in the presence of Cl−; formed hexamers immunoprecipitated by the FLAG tag of the recombinant trimer and their composition analysed (Fig. S3); conditions: both partners purified
T1 construct: collagen IV α1-chain NC1 domain, bovine, monomer from tissue-extracted NC1 hexamer; Used as a mixture with the α2 NC1 monomer; also called tissue-derived α1 NC1 monomer; NC1 monomers; source: purified from bovine lens basement membrane
T1 sequence: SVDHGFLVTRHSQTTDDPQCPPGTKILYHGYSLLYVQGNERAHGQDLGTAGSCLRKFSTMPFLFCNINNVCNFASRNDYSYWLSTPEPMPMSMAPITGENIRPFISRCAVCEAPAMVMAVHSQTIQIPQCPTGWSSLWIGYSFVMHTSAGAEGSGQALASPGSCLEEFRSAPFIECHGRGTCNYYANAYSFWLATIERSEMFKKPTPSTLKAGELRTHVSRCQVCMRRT

[4] = target: B2; assay: as above; conditions: both partners purified
[5] = target: the molecule itself; assay: AUC; sedimentation equilibrium, 0.3 mg/ml in Cl−-free TNA (25 mM Tris acetate pH 7.5, 150 mM sodium acetate), 4 °C, 10,000 rpm, 48 h; trimer–to–hexamer self-association model (two single chains to one hexamer), trimer mass fixed to 74 kDa
[6] = target: T1, bovine α1 NC1 monomer (collagen IV …); assay: SEC; in vitro hexamer assembly: 1 mg/ml in 25 mM Tris acetate pH 7.5, induced with 150 mM NaCl, 24 h at 37 °C unless varied (NaCl, protein, temperature, time); hexamer peak quantified by SEC; second-order fit T+T→H; conditions: both partners purified
[7] = target: T2, human collagen IV α1-chain NC1 domain, first domain of the single-chain trimer (residues 1438–1666) (human, UniProt P02462 1438-1666); assay: crystal structure; X-ray, 1.9 Å, space group P4_(1)2_(1)2; protein 11 mg/ml in 5 mM Tris-HCl pH 7.5, 150 mM NaCl; hexamer by crystallographic 2-fold; conditions: both partners purified
T2 construct: collagen IV α1-chain NC1 domain, human, residues 1438–1666; Not a free protein: joined by a GTG linker to m5 on the single chain m1; written apart for the domain-domain contacts in the crystal structure; also called α1 NC1 domain; not shown: FLAG, N-terminal, kept
T2 sequence (looked up): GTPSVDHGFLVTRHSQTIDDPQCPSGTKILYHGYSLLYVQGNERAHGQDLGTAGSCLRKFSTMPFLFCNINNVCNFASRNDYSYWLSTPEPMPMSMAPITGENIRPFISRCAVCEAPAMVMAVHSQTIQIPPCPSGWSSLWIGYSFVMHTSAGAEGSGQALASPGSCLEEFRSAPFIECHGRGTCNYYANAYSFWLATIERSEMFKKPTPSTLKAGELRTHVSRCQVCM

[8] = target: B4; assay: as above; conditions: both partners purified

Binder: B2
binding result [6]: binds

Binder: B4
binding result [7]: binds

Second part, led by results:

binding result [3]: binds
binding result [4]: binds
B1: single-chain α121 NC1 trimer (sc121 NC1-trimer) (other, human)
chain: GTPSVDHGFLVTRHSQTIDDPQCPSGTKILYHGYSLLYVQGNERAHGQDLGTAGSCLRKFSTMPFLFCNINNVCNFASRNDYSYWLSTPEPMPMSMAPITGENIRPFISRCAVCEAPAMVMAVHSQTIQIPPCPSGWSSLWIGYSFVMHTSAGAEGSGQALASPGSCLEEFRSAPFIECHGRGTCNYYANAYSFWLATIERSEMFKKPTPSTLKAGELRTHVSRCQVCMGTGYLLVKHSQTDQEPMCPVGMNKLWSGYSLLYFEGQEKAHNQDLGLAGSCLARFSTMPFLYCNPGDVCYYASRNDKSYWLSTTAPLPMMPVAEDEIKPYISRCSVCEAPAIAIAVHSQDVSIPHCPAGWRSLWIGYSFLMHTAAGDEGGGQSLVSPGSCLEDFRATPFIECNGGRGTCHYYANKYSFWLTTIPEQSFQGSPSADTLKAGLIRTHISRCQVCMAPGFLVTRHSQTIDDPQCPSGTKILYHGYSLLYVQGNERAHGQDLGTAGSCLRKFSTMPFLFCNINNVCNFASRNDYSYWLSTPEPMPMSMAPITGENIRPFISRCAVCEAPAMVMAVHSQTIQIPPCPSGWSSLWIGYSFVMHTSAGAEGSGQALASPGSCLEEFRSAPFIECHGRGTCNYYANAYSFWLATIERSEMFKKPTPSTLKAGELRTHVSRCQVCMRRT
notes: collagen IV α1-chain NC1 domain, human, residues 1438–1666; artificial Gly–Thr–Gly linker between α1 and α2; collagen IV α2-chain NC1 domain, human, residues 1490–1709; artificial Ala–Pro–Gly linker between α2 and α1; collagen IV α1-chain NC1 domain, human, residues 1446–1669 (including final C-terminal residues); Vector-derived residues between the FLAG tag and the first α1 residue may be …
kon [1]: 3.45 ± 0.12 M⁻¹ s⁻¹
stoichiometry N [2]: 2
Kd [5]: 37 µM

binding result [7]: binds
binding result [8]: binds
B3: human collagen IV α2-chain NC1 domain, second domain of the single-chain trimer (residues 1490–1709) (domain or fragment, UniProt P08572 1490-1709, looked up)
chain: YLLVKHSQTDQEPMCPVGMNKLWSGYSLLYFEGQEKAHNQDLGLAGSCLARFSTMPFLYCNPGDVCYYASRNDKSYWLSTTAPLPMMPVAEDEIKPYISRCSVCEAPAIAIAVHSQDVSIPHCPAGWRSLWIGYSFLMHTAAGDEGGGQSLVSPGSCLEDFRATPFIECNGGRGTCHYYANKYSFWLTTIPEQSFQGSPSADTLKAGLIRTHISRCQVCM
notes: collagen IV α2-chain NC1 domain, human, residues 1490–1709; Not a free protein: joined by GTG (N-terminal side, to m4) and APG (C-terminal side, to m6) linkers on the single chain m1; also called α2 NC1 domain
